Experimental data as given in patent US20130130288A1.

Legend:
[1] = molecular target: Aβ1-20 peptide; assay: solution-phase equilibrium titration, free antibody read by ELISA on ADDL-coated plate, GRAFIT fit
[2] = molecular target: amyloid β-derived diffusible ligands (ADDLs), oligomers of Aβ1-42; assay: as above
[3] = molecular target: Aβ1-40 monomer; assay: as above
[4] = molecular target: fibrillar Aβ (Aβ1-42 fibrils); assay: as above
[5] = molecular target: Aβ1-42 monomer; assay: ELISA, IgG2 antibodies
[6] = molecular target: biotinylated ADDLs; assay: ELISA on coated antigen, chemiluminescence; antibody at 0 timepoint
[7] = molecular target: biotinylated ADDLs; assay: ELISA on coated antigen, chemiluminescence; antibody stored 1 month at 25°
[8] = molecular target: biotinylated ADDLs; assay: ELISA on coated antigen, chemiluminescence; antibody stored 1 month at 40°
[9] = molecular target: biotinylated ADDLs; assay: ELISA on coated antigen, chemiluminescence; antibody stored 1 month at 4°

Chain of Aβ1-20 peptide (peptide, as listed by the source): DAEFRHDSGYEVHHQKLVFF

Substance	Kd [1] [nM]	Kd [2] [nM]	Kd [3] [nM]	Kd [4] [nM]	EC50 [5] [nM]	EC50 [6] [nM]	EC50 [7] [nM]	EC50 [8] [nM]	EC50 [9] [nM]
WO-2 (antibody)	19.3	0.57	6.15	1.15					
anti-ADDL antibody 19.3					18	1.1	2.1	5.9	1.7
